The values that follow come from US20060183195A1 (published 2006).

Where a chain is given by its changes, count along the chain named.

The target of test [1] is T1, native human CD4 on the cell surface (human, UniProt P01730 26-458).
T1 construct: whole, on cells; also called native CD4; CD4 on SupT1 cells
Briefly: flow cytometry, serial dilutions on SupT1 cells. The method, then: (§1) The avidity and affinity determinations described above were performed with recombinant CD4 (rCD4). To determine the avidity of the human monoclonal antibodies for native CD4 (nCD4). […] Specifically, serial dilutions of antibody were incubated with SupT1 cells for 6 hr on ice, washed and detected any bound antibody with FITC-goat anti-human Fey.
(§2) *Human monoclonal antibodies were incubated in serial dilutions with SupT1 cells for 6 hrs, washed twice and incubated with FITC-conjugated goat anti-human Fey antisera, washed and fixed. The Ka was calculated from the concentration of antibody yielding one-half of the maximum fluorescence as determined from a four-parameter fit.

For test [2], the target named is T2, recombinant soluble human CD4 (human, UniProt P01730 26-396, limits assumed).
T2 construct: Soluble recombinant antigen used in ELISA and on or over the sensor chip; also called rCD4; sCD4
As to the kind of experiment: BIAcore, rCD4 coupled to chip, mAb flowed over. On the procedure:
(§3) The rate and equilibrium constants presented in Table 19 were determined with a BIAcore, using antigen (rCD4) coupled to the sensor chip and flowing mAb over. These constants were derived from at least three independent experiments using purified mAbs.

Test [3] addresses T2, recombinant soluble human CD4. Briefly: SPR, sCD4 amine-coupled to sensor chip, antibody flowed over. On the technique in general: SPR reads the build-up and loss of mass on a sensor chip optically.
The target is the same in test [4]. As to the kind of experiment: BIAcore, mAb captured on anti-human IgG Fc chip, rCD4 flowed over. On the procedure: The rate and equilibrium constants presented in Table 18 were determined with a BIAcore (Pharmacia Biosensor) using goat anti-human IgG (Fc-specific) coupled to the sensor chip and flowing a saturating concentration of mAb over followed by various concentrations of antigen (rCD4). These constants were derived from three experiments using purified mAbs.

The target in test [5] is T1, native human CD4 on the cell surface. Briefly: ratio of Ka on rCD4 (BIAcore) to Ka on nCD4 (flow cytometry, SupT1). The method, then:
as §3, §1, §2

For test [6], the target named is T2, recombinant soluble human CD4. Briefly: rCD4 column of Table 21 (same values as Table 19: BIAcore, rCD4 on chip). On the procedure:
as §3

Test [7] deals with T1, native human CD4 on the cell surface. Briefly: flow cytometry, serial dilutions on SupT1 cells, half-maximal fluorescence. The method, then: as §1, §2
The target in test [8] is T3, chimpanzee CD4 on peripheral blood lymphocytes (chimpanzee, UniProt P16004 26-458).
T3 construct: whole, on cells; also called chimpanzee CD4 cells
T3 sequence (P16004 26-458): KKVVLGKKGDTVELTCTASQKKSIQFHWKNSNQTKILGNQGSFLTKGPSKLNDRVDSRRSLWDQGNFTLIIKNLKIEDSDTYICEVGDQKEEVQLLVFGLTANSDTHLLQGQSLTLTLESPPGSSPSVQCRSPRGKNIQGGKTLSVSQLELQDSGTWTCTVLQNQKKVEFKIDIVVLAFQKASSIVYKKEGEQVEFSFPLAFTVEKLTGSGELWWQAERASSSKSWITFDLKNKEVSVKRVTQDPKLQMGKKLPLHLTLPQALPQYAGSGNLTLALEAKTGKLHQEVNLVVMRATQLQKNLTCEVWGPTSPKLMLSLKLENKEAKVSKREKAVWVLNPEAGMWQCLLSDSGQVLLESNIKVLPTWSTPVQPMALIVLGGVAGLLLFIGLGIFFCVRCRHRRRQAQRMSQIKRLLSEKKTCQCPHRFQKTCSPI
As to the kind of experiment: two-colour flow cytometry on peripheral blood lymphocytes. The method, then:
(§4) It is further desirable for some purposes that the animal be a non-human primate that expresses CD4 comprising a cross-reactive epitope with human CD4 such that it is recognized by the monoclonal antibody. […] Peripheral blood lymphocytes were isolated from whole blood of chimpanzee, rhesus, and cynomolgus monkeys. […] The stained cells were then analyzed by flow cytometry to determine if each of the human monoclonal antibodies bound to endogenous CD4 on the surface of lymphocytes from each of these three non-human primates.
(A flow cytometer gives signals particle by particle.)

For test [9], the target named is T4, rhesus monkey CD4 on peripheral blood lymphocytes (rhesus monkey, UniProt P16003 26-458).
T4 construct: whole, on cells; also called rhesus CD4 cells
T4 sequence (P16003 26-458): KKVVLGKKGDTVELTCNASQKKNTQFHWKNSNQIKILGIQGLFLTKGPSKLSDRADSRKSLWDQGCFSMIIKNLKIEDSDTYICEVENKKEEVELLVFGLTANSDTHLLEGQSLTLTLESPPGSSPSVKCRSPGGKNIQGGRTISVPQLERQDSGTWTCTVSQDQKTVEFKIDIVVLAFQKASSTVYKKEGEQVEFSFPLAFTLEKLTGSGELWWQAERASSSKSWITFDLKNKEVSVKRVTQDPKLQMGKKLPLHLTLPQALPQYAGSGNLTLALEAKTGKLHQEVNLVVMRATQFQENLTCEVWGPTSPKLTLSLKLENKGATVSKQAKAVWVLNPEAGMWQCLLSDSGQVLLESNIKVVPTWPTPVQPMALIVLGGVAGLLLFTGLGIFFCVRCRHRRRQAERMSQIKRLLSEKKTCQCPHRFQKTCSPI
Described as above. On the procedure:
as §4

In test [10] the target is T5, cynomolgus monkey CD4 on peripheral blood lymphocytes (cynomolgus monkey, UniProt P79185 26-458).
T5 construct: whole, on cells; also called cynomolgus CD4 cells
T5 sequence (P79185 26-458): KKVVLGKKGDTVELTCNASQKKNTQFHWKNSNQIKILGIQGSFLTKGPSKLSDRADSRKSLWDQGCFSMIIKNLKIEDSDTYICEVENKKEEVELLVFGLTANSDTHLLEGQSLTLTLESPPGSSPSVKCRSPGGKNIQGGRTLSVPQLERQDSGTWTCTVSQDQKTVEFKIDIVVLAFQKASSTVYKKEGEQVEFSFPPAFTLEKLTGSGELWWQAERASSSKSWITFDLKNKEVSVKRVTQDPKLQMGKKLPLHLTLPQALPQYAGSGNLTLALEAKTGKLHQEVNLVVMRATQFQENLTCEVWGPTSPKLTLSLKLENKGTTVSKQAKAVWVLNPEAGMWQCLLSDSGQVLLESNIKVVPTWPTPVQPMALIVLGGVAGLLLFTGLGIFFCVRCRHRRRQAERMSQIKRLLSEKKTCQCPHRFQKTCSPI
Described as above. On the procedure: as §4

Test [11] addresses T2, recombinant soluble human CD4. Briefly: association and dissociation rates of human CD4 antigen for the antibody; method not named.

By koff is commonly meant the first-order rate constant of dissociation. As a reminder, the kon is a measure of how fast the partners come together.

B1: 6G5.1 (antibody, human IgG1, V domains shown)
VH: QVQLQQWGAGLLKPSETLSLTCAVYGGSFSGYYWSWIRQPPGKGLEWIGEINHSGSTNYNPSLKSRVTISVDTSKNQFSLKLSSVTAADTAVYYCARVINWFDPWGQGTLVTVSS
VL: DIQMTQSPSSVSASVGDRVTITCRASQDISSWLAWYQHKPGKAPKLLIYAASSLQSGVPSRFSGSGSGTDFTLTISSLQPEDFATYYCQQANSFPYTFGQGTKLEIKR
notes: Human IgG1 kappa from a hybridoma of an HC2/KCo5 transgenic mouse; VH4-34/JH5; VkL19/Jk2
As for B1, the Ka is over 1e+09 M⁻¹ in [1]; 1.1e+10 M⁻¹ in [2]; 1.1e+10 M⁻¹ in test [3]; 1.4e+08 M⁻¹ in test [4]; 1.1e+10 M⁻¹ in test [6]; 1e+09 M⁻¹ in [7]. Also, the koff in test [2] is 1e-05 s⁻¹; in test [3] it was 1e-05 s⁻¹; in test [4], 0.00069 s⁻¹. Moreover, the kon in test [2] turned out to be 110000 M⁻¹ s⁻¹; in test [3], 110000 M⁻¹ s⁻¹; in test [4] it was 93000 M⁻¹ s⁻¹. For the same molecule, the “Ratio of Ka (rCD4/nCD4)” value in test [5] is 5.9.

B2: 4D1.4 (antibody, V domains shown)
VH: EVQLVQSGAEVKKPGESLKISCKGSGYSFTGYWIGWVRQMPGKGLEWMGIIYPGDSDTTYSPSFQGQVTISADKSISTAYLQWSSLKASDTAMYYCARDQLGLFDYWGQGTLVTVSS
VL: B1 VL with V11L, D28G, H38Q, G41E, L46S, A50S, A91Y, N92D, F94Y
notes: Human IgG1 kappa from a hybridoma of an HC2/KCo5 transgenic mouse
Regarding B2, the Ka in test [1] is over 1e+09 M⁻¹; in [2], 2.3e+09 M⁻¹; in test [3], 2.3e+09 M⁻¹; in [4] it was 7.3e+07 M⁻¹; in test [6], 2.3e+09 M⁻¹; in [7], 2e+09 M⁻¹. The values for the off-rate (koff) in test [2], in test [3] and in test [4] were 4.2e-05 s⁻¹, 4.2e-05 s⁻¹ and 0.0034 s⁻¹, respectively. For the same molecule, the kon came to 98000 M⁻¹ s⁻¹ in [2], 98000 M⁻¹ s⁻¹ in test [3] and 250000 M⁻¹ s⁻¹ in [4]. In test [5], the “Ratio of Ka (rCD4/nCD4)” value turned out to be 1.2.

B3: 10C5.6 (antibody, human IgG1, V domains shown)
VH: B1 VH
VL: DIQMTQSPSSVSASVGDRVTITCRASQDISSWLAWYQHKPGKAPKLLIYAASSLQSGVPSRFSGSGSGTDFTLTISSLQPEDFATYYCQQANSFPYTFGQGTKLEIK
notes: as for B2
For B3, the Ka in test [1] is over 1e+09 M⁻¹; in test [2], 4.5e+09 M⁻¹; in test [3], 4.5e+10 M⁻¹; in test [4], 1.3e+08 M⁻¹; in test [6], 4.5e+09 M⁻¹; in test [7], 1e+09 M⁻¹. In addition, the koff amounted to 1.6e-05 s⁻¹ in [2], 1.6e-05 s⁻¹ in [3] and 0.00071 s⁻¹ in test [4]. Also, the kon in test [2] was 74000 M⁻¹ s⁻¹; in [3] it was 74000 M⁻¹ s⁻¹; in test [4] it was 94000 M⁻¹ s⁻¹. Besides, the binding result in [8], in [9] and in [10] was “binds” throughout. Moreover, in test [5], the “Ratio of Ka (rCD4/nCD4)” value was determined as 2.5.

B4: 2C5.1 (antibody, V domains shown)
VH: EVQLVQSGAEVKKPGESLKISCKGSGYRFTSYWIGWVRQMPGKGLEWMGIIYPGDSDTRYSPSFQGQVTISADKSISTAYLQWSSLKASDTAMYYCARAPTGDWFDPWGQGTLVTVSS
VL: B1 VL with V11L, D28G, H38Q, G41E, L46S, A91Y, F94Y, Y96P, Q100G, L104V
As for B4, the Ka in test [11] was about 8e+07 M⁻¹.

B5: 4E4.2 (antibody, V domains shown)
VH: B4 VH
VL: DIQMTQSPSSLSASVGDRVTITCRASQGISSWLAWYQQKPDKAPKSLIYAASSLQSGVPSKFSGSGSGTDFTLTISSLQPEDFATYYCQQYNSYPPTFGGGTKVEIKR
Consider B5, for which the Ka in [11] was about 9e+07 M⁻¹.
